The record followed here is patent US20190315842A1.

Test [1] addresses systemic lupus erythematosus autoantigen SSB (UniProt P05455). Kind of test: AtheNA Multi-Lyte ANA, Ab at 25 ug/ml.
Test [2] has as its target systemic lupus erythematosus autoantigen SSA. Kind of test: AtheNA Multi-Lyte ANA, Ab at 25 ug/ml.
The target in test [3] is Sm (sphingomyelin). Nature of the test: AtheNA Multi-Lyte ANA, Ab at 25 ug/ml.
For test [4], the target named is centromere B (CentB) (UniProt P07199). Nature of the test: AtheNA Multi-Lyte ANA, Ab at 25 ug/ml.
centromere B (CentB), sequence (P07199 2-599): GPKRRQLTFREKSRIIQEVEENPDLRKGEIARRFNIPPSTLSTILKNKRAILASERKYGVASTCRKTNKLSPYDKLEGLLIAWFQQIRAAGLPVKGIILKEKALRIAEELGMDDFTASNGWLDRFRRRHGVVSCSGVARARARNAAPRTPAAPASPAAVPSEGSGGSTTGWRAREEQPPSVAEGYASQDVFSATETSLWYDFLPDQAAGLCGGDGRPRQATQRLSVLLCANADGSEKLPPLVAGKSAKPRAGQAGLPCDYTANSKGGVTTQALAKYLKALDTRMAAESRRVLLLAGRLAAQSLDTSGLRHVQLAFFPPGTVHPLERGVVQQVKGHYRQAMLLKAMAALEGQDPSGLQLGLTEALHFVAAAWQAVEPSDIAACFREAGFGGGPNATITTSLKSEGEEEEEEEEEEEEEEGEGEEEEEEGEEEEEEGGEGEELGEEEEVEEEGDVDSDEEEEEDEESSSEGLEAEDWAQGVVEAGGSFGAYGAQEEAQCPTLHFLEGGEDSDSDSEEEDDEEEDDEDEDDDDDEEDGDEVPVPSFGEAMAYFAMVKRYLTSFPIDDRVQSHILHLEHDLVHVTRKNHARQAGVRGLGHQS
The target in test [5] is histones. Kind of test: AtheNA Multi-Lyte ANA, Ab at 25 ug/ml.
Test [6] addresses histidine-tRNA ligase (Jo-1) (UniProt P12081). Nature of the test: AtheNA Multi-Lyte ANA, Ab at 25 ug/ml.
The target in test [7] is sclerosis autoantigen (Scl-70) (UniProt P11387). Kind of test: AtheNA Multi-Lyte ANA, Ab at 25 ug/ml.
sclerosis autoantigen (Scl-70), sequence (P11387 2-765 limits assumed): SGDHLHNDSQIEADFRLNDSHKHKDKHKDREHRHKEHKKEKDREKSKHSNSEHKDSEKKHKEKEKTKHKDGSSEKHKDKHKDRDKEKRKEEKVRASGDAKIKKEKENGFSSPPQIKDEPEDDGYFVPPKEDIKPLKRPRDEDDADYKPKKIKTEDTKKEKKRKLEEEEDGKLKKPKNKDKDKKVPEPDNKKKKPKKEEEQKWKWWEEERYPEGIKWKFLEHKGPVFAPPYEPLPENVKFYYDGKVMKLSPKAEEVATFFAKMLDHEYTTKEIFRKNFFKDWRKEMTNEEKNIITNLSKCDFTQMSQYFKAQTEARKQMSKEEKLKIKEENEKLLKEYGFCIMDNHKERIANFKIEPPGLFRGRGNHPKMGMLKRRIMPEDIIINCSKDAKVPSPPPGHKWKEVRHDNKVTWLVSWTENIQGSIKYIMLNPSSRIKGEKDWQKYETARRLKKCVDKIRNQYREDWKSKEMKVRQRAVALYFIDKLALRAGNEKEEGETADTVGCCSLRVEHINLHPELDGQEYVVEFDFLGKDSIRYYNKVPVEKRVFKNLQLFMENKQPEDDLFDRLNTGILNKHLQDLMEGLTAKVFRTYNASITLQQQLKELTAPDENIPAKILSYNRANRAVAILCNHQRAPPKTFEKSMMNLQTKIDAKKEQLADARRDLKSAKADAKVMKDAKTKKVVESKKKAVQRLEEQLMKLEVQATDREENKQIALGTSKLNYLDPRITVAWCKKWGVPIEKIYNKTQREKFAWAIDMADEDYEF
Test [8] deals with ribonucleoprotein (RNP). Nature of the test: AtheNA Multi-Lyte ANA, Ab at 25 ug/ml.
Test [9] addresses systemic lupus erythematosus autoantigen SSB (UniProt P05455). Kind of test: AtheNA Multi-Lyte ANA, Ab at 50 ug/ml.
The target in test [10] is systemic lupus erythematosus autoantigen SSA. Kind of test: AtheNA Multi-Lyte ANA, Ab at 50 ug/ml.
Test [11] has as its target Sm (sphingomyelin). Kind of test: AtheNA Multi-Lyte ANA, Ab at 50 ug/ml.
Test [12] addresses centromere B (CentB) (UniProt P07199). Kind of test: AtheNA Multi-Lyte ANA, Ab at 50 ug/ml.
The target in test [13] is histones. Nature of the test: AtheNA Multi-Lyte ANA, Ab at 50 ug/ml.
The target in test [14] is histidine-tRNA ligase (Jo-1) (UniProt P12081). Kind of test: AtheNA Multi-Lyte ANA, Ab at 50 ug/ml.
histidine-tRNA ligase (Jo-1), sequence (P12081 2-509): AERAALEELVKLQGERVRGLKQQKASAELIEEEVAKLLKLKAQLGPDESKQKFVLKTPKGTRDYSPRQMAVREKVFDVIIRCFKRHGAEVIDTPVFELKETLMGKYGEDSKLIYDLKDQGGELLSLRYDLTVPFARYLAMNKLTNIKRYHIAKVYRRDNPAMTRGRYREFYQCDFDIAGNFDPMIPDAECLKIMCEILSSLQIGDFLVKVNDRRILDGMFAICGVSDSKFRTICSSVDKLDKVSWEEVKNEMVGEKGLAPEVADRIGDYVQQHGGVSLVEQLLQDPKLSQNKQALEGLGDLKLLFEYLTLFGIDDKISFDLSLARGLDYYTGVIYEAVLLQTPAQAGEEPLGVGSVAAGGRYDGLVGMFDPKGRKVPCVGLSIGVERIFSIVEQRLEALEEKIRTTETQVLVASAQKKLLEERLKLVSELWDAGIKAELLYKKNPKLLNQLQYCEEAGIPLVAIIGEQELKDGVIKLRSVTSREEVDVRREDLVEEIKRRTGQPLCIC
In test [15] the target is sclerosis autoantigen (Scl-70) (UniProt P11387). Nature of the test: AtheNA Multi-Lyte ANA, Ab at 50 ug/ml.
The target in test [16] is ribonucleoprotein (RNP). Nature of the test: AtheNA Multi-Lyte ANA, Ab at 50 ug/ml.

systemic lupus erythematosus autoantigen SSB, sequence (P05455 whole entry): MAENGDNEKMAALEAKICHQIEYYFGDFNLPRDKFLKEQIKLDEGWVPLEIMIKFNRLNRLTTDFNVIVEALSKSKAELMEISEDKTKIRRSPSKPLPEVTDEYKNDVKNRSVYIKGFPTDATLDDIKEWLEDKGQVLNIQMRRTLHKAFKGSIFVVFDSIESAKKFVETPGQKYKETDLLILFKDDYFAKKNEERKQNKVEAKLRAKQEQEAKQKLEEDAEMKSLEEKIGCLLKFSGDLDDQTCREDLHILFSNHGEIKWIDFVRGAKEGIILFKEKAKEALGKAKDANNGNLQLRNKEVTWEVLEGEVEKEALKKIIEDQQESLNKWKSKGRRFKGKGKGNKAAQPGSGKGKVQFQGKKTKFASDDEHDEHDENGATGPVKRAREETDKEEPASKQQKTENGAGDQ

Consider “4e10 (Anti HIV, NIH AIDS Reagent Program) (antibody)”, for which the AtheNA signal in [1] was 157; in test [2], 75; in [3] it was 7; in [4], 7; in test [5] it was 15; in test [6], 124. Moreover, the AtheNA signal in [7] came to 3; in [8], 13; in [9], 184; in test [10], 92; in [11], 11; in test [12], 12. For the same substance, the AtheNA signal came out at 20 in [13], 149 in [14], 3 in test [15] and 18 in test [16].

Turning to “SYNAGIS (anti-RSV monoclonal antibody palivizumab)”, the AtheNA signal in test [1] was found to be 6; in test [2] it was 2; in test [3], 2; in test [4], 1; in test [5], 1; in [6] it was 1. The AtheNA signal came to 2 in [7]; 3 in test [8]; 5 in [9]; 0 in [10]; 4 in [11]; 1 in test [12]. Moreover, the AtheNA signal in test [13] worked out at 2; in test [14], 1; in test [15] it was 1; in test [16] it was 1.
